This is an account of results in US20240218030A1 (CELLEMEDY, published 2024).

In this test the target is T1, human transferrin receptor-Fc tag standard (human, UniProt P02786 89-760, limits assumed).
T1 construct: Reagent coated on the ELISA plate at 2 ug/ml; also called hTfR; hTER; not shown: Fc tag
In words: ELISA on plate-coated human TfR-Fc with anti-His detection; Kd calculated from an expected saturation point, since the curve was not saturated at 10000 nM. On the procedure:
Then, it was washed 3 times with 200 μl of PBST (PBS+Tween0.05%). An antibody (mouse anti-His tag antibody, Hisprobe) that specifically binds to the hexa-His tag was diluted 1/1000 in PBST, and the diluted solution was treated by 100 μl at room temperature for 1 hour.
Then, it was washed 3 times with 200 μl of PBST (PBS+Tween0.05%). TMB solution expressing coloration by reacting with HRP was treated by 100 μl at room temperature for 15 minutes. After 50 μl of 1M H₂SO₄ solution was treated, optical density was measured with TECAN at a wavelength of 450 nm. This was calculated using the Langmuir equation (Table 4, FIGS. 4 to 6).
FIG. 7 illustrates results of evaluation/comparison of the binding force of huHF_mutant1-dual and huHF_mutant2-dual to hTfR.

T1 sequence (P02786 89-760 limits assumed): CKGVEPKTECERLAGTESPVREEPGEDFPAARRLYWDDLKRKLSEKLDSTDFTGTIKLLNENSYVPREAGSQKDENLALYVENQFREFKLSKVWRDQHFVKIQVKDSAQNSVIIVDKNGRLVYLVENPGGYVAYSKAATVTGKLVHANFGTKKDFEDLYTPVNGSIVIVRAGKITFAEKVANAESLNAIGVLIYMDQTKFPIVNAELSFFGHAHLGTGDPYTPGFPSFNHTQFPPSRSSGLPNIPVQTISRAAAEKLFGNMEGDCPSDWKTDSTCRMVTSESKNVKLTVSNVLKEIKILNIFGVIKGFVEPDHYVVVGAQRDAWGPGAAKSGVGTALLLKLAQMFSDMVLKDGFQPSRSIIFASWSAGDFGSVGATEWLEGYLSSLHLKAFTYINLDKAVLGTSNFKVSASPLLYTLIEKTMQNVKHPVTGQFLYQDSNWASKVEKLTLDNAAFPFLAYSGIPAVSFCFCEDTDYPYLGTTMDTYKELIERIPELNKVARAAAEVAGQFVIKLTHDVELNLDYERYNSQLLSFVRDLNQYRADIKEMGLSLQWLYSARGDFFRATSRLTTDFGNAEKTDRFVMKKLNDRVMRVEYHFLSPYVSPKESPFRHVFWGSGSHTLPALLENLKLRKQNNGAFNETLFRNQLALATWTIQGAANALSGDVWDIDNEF

B1: huHF_Mutant2-dual (designed binder)
chain: MTTASTSQVRQNYHAASEAAINAQINLELYASYVYLSMSYYFDRDDVALKNFAKYFLHQSHEEREHAEKLMKLQNQRGGRIALADIQKPDCDDGGSYGSLYAFDIWESGLNAMECALHLEKNVNQSLLALHALATAKNDPHLCDFIETHYLNEQVKAIKELGDHVTNLRKMGAPESGLAEYLFDKHTLGDSDNESMPSFITLASLSTWEGYFDF
notes: Self-assembled ferritin nanoparticle of 24 monomers
With B1, the Kd was roughly 4.4 µM.

A word on the Kd: it is the concentration at which binding is half-saturated.
